Test results taken from the supplement of paper PMC7877785.
± gives the uncertainty stated by the source.

Test: self-splicing fitness, log relative to wild type (ln ratio); higher = more splicing; Tetrahymena group I intron in knt gene, E. coli kanamycin selection, DiMSum; sequences stand for … in CUCUCU…GGAGGGAAAAGUUAUCAGGCAUGCACCUGGUAGCUAGUCUUUAAACCAAUAGAUUGCAUCGGUUUAAAAGGCAAGACCGUCAAAUUGCGGGAAAGGGGUCAACAGCCGUUCAGUACCAAGUCUCAGGGGAAACUUUGAGAUGGCCUUGCAAAGGGUAUGGUAAUAAGCUGACGGACAUGGUCCUAACCACGCAGCCAAGUCCUAAGUCAACAGAUCUUCUGUUGAUAUGGAUGCAGUUCACAGACUAAAUGUCGGUCGGGGAAGAUGUAUUCUUCUCAUAAGAUAUAGUCGGACCUCUCCUUAAUGGGAGCUAGCGGAUGAAGUGAUGCAACACUGGAGCCGCUGGGAACUAAUUUGUAUGCGAAAGUAUAUUGAUUAGUUUUGGAGUACUCGUGGUCG
Outline: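 DiMSum derived fitness as the error-weighted combination of fold changes across replicates, kanamycin versus no kanamycin, normalised to wild type. E. coli BL21(DE3) held the library, which randomised all eight P1ex-region intron nucleotides within the knt kanamycin-resistance gene on pET-22b(+). Six replicate transformations grew overnight at 37°C or 30°C on LB agar with or without 25 μg/mL kanamycin, also containing 100 μg/mL carbenicillin, 50 μM IPTG and 0.2% rhamnose, and pooled colonies were amplicon-sequenced on an Illumina HiSeq 2500.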

## GACCAGCAAUAUUACGGCUC
30 °C
  self-splicing fitness (ln): -0.856 ± 0.13
37 °C
  self-splicing fitness (ln): 0.658 ± 0.15

## GACCAGCAAUAUUACGGGGC
30 °C
  self-splicing fitness (ln): -2.78 ± 0.18
37 °C
  self-splicing fitness (ln): -2.14 ± 0.15

## GACCAGCAAUAUUACGGUAA
30 °C
  self-splicing fitness (ln): 0.0402 ± 0.06
37 °C
  self-splicing fitness (ln): -0.0565 ± 0.071

## GACCAGCAAUAUUACGGUGA
30 °C
  self-splicing fitness (ln): -0.339 ± 0.057
37 °C
  self-splicing fitness (ln): -0.154 ± 0.081

## GACCAGCAAUAUUACGUAUU
30 °C
  self-splicing fitness (ln): -0.471 ± 0.049
37 °C
  self-splicing fitness (ln): -0.139 ± 0.062

## GACCAGCAAUAUUACGUCCU
30 °C
  self-splicing fitness (ln): -1.86 ± 0.1
37 °C
  self-splicing fitness (ln): 0.317 ± 0.11

## GACGAGCAAUAUUACGAAAA
37 °C
  self-splicing fitness (ln): -3.07 ± 0.37

## GACGAGCAAUAUUACGACGA
30 °C
  self-splicing fitness (ln): -0.98 ± 0.11
37 °C
  self-splicing fitness (ln): -1.07 ± 0.12

## GACGAGCAAUAUUACGACGG
30 °C
  self-splicing fitness (ln): -1.82 ± 0.28

## GACGAGCAAUAUUACGAGGA
30 °C
  self-splicing fitness (ln): -2.28 ± 0.28
37 °C
  self-splicing fitness (ln): -2.66 ± 0.36

## GACGAGCAAUAUUACGAGUA
30 °C
  self-splicing fitness (ln): -3.81 ± 0.39
37 °C
  self-splicing fitness (ln): -3.26 ± 0.37

## GACGAGCAAUAUUACGAUGG
30 °C
  self-splicing fitness (ln): -3.7 ± 0.17
37 °C
  self-splicing fitness (ln): -3 ± 0.2

## GACGAGCAAUAUUACGCAUA
30 °C
  self-splicing fitness (ln): -1.6 ± 0.21
37 °C
  self-splicing fitness (ln): -0.87 ± 0.17

## GACGAGCAAUAUUACGCCAA
30 °C
  self-splicing fitness (ln): -3.23 ± 0.28
37 °C
  self-splicing fitness (ln): -0.956 ± 0.3

## GACGAGCAAUAUUACGCGAC
30 °C
  self-splicing fitness (ln): -2.09 ± 0.26
37 °C
  self-splicing fitness (ln): -1.04 ± 0.27

## GACGAGCAAUAUUACGCUCC
30 °C
  self-splicing fitness (ln): -2.9 ± 0.29
37 °C
  self-splicing fitness (ln): -1.91 ± 0.34

## GACGAGCAAUAUUACGCUGC
37 °C
  self-splicing fitness (ln): -2.49 ± 0.49

## GACGAGCAAUAUUACGGAUU
37 °C
  self-splicing fitness (ln): -2.03 ± 0.19

## GACGAGCAAUAUUACGGGCA
30 °C
  self-splicing fitness (ln): -1.58 ± 0.18
37 °C
  self-splicing fitness (ln): -2.56 ± 0.29

## GACGAGCAAUAUUACGGGUA
30 °C
  self-splicing fitness (ln): -3.66 ± 0.2
37 °C
  self-splicing fitness (ln): -2.94 ± 0.2

## GACGAGCAAUAUUACGGUCA
30 °C
  self-splicing fitness (ln): -2.22 ± 0.15
37 °C
  self-splicing fitness (ln): -0.552 ± 0.15

## GACGAGCAAUAUUACGGUUU
30 °C
  self-splicing fitness (ln): -2.28 ± 0.11
37 °C
  self-splicing fitness (ln): -1.87 ± 0.14

## GACGAGCAAUAUUACGUACA
30 °C
  self-splicing fitness (ln): -3.04 ± 0.27
37 °C
  self-splicing fitness (ln): -2.26 ± 0.2

## GACGAGCAAUAUUACGUAUC
37 °C
  self-splicing fitness (ln): -2.42 ± 0.35

## GACGAGCAAUAUUACGUGAG
30 °C
  self-splicing fitness (ln): -2.7 ± 0.16
37 °C
  self-splicing fitness (ln): -2.62 ± 0.19

## GACGAGCAAUAUUACGUGAU
30 °C
  self-splicing fitness (ln): -3.53 ± 0.17
37 °C
  self-splicing fitness (ln): -2.6 ± 0.16

## GACGAGCAAUAUUACGUGCG
30 °C
  self-splicing fitness (ln): -2.7 ± 0.17
37 °C
  self-splicing fitness (ln): -0.259 ± 0.11

## GACGAGCAAUAUUACGUGUC
37 °C
  self-splicing fitness (ln): -2.74 ± 0.28

## GACGAGCAAUAUUACGUUCA
30 °C
  self-splicing fitness (ln): -1.67 ± 0.19
37 °C
  self-splicing fitness (ln): -0.881 ± 0.16

## GACUAGCAAUAUUACGACAA
30 °C
  self-splicing fitness (ln): -0.896 ± 0.063
37 °C
  self-splicing fitness (ln): -0.0215 ± 0.069

## GACUAGCAAUAUUACGACAC
30 °C
  self-splicing fitness (ln): -0.0525 ± 0.075
37 °C
  self-splicing fitness (ln): -0.0737 ± 0.093

## GACUAGCAAUAUUACGACCC
30 °C
  self-splicing fitness (ln): 0.42 ± 0.14
37 °C
  self-splicing fitness (ln): 0.392 ± 0.18

## GACUAGCAAUAUUACGAGUG
30 °C
  self-splicing fitness (ln): -0.94 ± 0.078
37 °C
  self-splicing fitness (ln): -0.316 ± 0.098

## GACUAGCAAUAUUACGAUUG
30 °C
  self-splicing fitness (ln): -2.2 ± 0.087
37 °C
  self-splicing fitness (ln): -2.14 ± 0.15

## GACUAGCAAUAUUACGCAGG
30 °C
  self-splicing fitness (ln): -3.04 ± 0.17
37 °C
  self-splicing fitness (ln): -2.17 ± 0.12

## GACUAGCAAUAUUACGCAUU
30 °C
  self-splicing fitness (ln): -2.42 ± 0.14
37 °C
  self-splicing fitness (ln): -1.63 ± 0.13

## GACUAGCAAUAUUACGCUAA
30 °C
  self-splicing fitness (ln): -1.08 ± 0.12
37 °C
  self-splicing fitness (ln): -0.983 ± 0.13

## GACUAGCAAUAUUACGCUCA
30 °C
  self-splicing fitness (ln): -0.407 ± 0.1
37 °C
  self-splicing fitness (ln): -0.306 ± 0.11

## GACUAGCAAUAUUACGCUUU
30 °C
  self-splicing fitness (ln): -2.59 ± 0.19
37 °C
  self-splicing fitness (ln): -1.66 ± 0.16

## GACUAGCAAUAUUACGGACA
30 °C
  self-splicing fitness (ln): -0.472 ± 0.1
37 °C
  self-splicing fitness (ln): -0.0878 ± 0.11

## GACUAGCAAUAUUACGGCCU
30 °C
  self-splicing fitness (ln): -1 ± 0.11
37 °C
  self-splicing fitness (ln): -0.85 ± 0.16

## GACUAGCAAUAUUACGGGCU
30 °C
  self-splicing fitness (ln): -2.18 ± 0.15
37 °C
  self-splicing fitness (ln): -1.64 ± 0.15

## GACUAGCAAUAUUACGGUCU
30 °C
  self-splicing fitness (ln): -3.36 ± 0.22
37 °C
  self-splicing fitness (ln): -3.21 ± 0.33

## GACUAGCAAUAUUACGGUUA
30 °C
  self-splicing fitness (ln): -0.116 ± 0.083
37 °C
  self-splicing fitness (ln): 0.109 ± 0.085

## GACUAGCAAUAUUACGUCCC
30 °C
  self-splicing fitness (ln): -1.82 ± 0.23
37 °C
  self-splicing fitness (ln): -0.833 ± 0.22

## GACUAGCAAUAUUACGUGAA
30 °C
  self-splicing fitness (ln): -0.567 ± 0.056
37 °C
  self-splicing fitness (ln): -0.302 ± 0.083

## GACUAGCAAUAUUACGUGCA
30 °C
  self-splicing fitness (ln): -0.898 ± 0.059
37 °C
  self-splicing fitness (ln): -0.504 ± 0.068

## GACUAGCAAUAUUACGUUUA
30 °C
  self-splicing fitness (ln): -1.05 ± 0.094
37 °C
  self-splicing fitness (ln): -0.651 ± 0.11

## GAGAAGCAAUAUUACGAAGA
30 °C
  self-splicing fitness (ln): -1.43 ± 0.28
37 °C
  self-splicing fitness (ln): -1.67 ± 0.26

## GAGAAGCAAUAUUACGACAC
30 °C
  self-splicing fitness (ln): -0.317 ± 0.15
37 °C
  self-splicing fitness (ln): 0.578 ± 0.18
